Source: US20140348834A1 (published 2014)

Experiments:
[1] = molecular target: T1, human IL-17A (human, UniProt Q16552 24-155); test: cell-based or functional assay
T1 sequence (Q16552 24-155 limits assumed): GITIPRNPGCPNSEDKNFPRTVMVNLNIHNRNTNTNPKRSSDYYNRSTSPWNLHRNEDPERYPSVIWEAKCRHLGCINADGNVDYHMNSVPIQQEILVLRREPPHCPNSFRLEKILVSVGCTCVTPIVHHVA

[2] = molecular target: T1, human IL-17A; test: ELISA, captured antibody, serially diluted biotin-IL-17 (Example 1.5.1)
[3] = molecular target: T2, human IL-17A/F (human, UniProt Q16552 24-155; Q96PD4 31-163); test: SPR Biacore, captured binder
T2 construct: Heterodimer of IL-17A and IL-17F, purified recombinant; also called HuIL-17A/F; Hu IL-17A/F
T2 sequence (Q16552 24-155 limits assumed, chain 1 of 2): as the sequence (Q16552 24-155 limits assumed) above
T2 sequence (Q96PD4 31-163 limits assumed, chain 2 of 2): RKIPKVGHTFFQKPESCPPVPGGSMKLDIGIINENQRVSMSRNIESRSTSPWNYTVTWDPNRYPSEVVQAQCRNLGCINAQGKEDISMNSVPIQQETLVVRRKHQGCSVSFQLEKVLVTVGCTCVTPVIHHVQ
Procedure: (§1) The binding of antibodies to purified recombinant human, cyno, rat, mouse, rabbit IL-17 and human IL-17A/F were determined by surface plasmon resonance-based measurements with a Biacore® 3000 instrument (Biacore® AB, Uppsala, Sweden) using running HBS-EP (10 mM HEPES [pH 7.4], 150 mM NaCl, 3 mM EDTA, and 0.005% surfactant P20) at 25° C. […] Approximately 5000 RU of goat anti-mouse or anti-human IgG (Fcγ) fragment specific polyclonal antibody (Pierce Biotechnology Inc, Rockford, Ill.) diluted in 10 mM sodium acetate (pH 4.5) was directly immobilized across a CM5 research grade biosensor chip using a standard amine coupling kit according to manufacturer's instructions and procedures at 25 μg/ml. Unreacted moieties on the biosensor surface were blocked with ethanolamine. Modified carboxymethyl dextran surface in flowcell 2 and 4 was used as a reaction surface. Unmodified carboxymethyl dextran without goat anti-mouse or anti-human IgG in flow cell 1 and 3 was used as the reference surface. For kinetic analysis, rate equations derived from the 1:1 Langmuir binding model were fitted simultaneously to association and dissociation phases of all eight injections (using global fit analysis) with the use of Biaevaluation 4.0.1 software. Purified antibodies were diluted in HEPES-buffered saline for capture across goat anti-mouse or anti-human IgG specific reaction surfaces. Antibodies to be captured as a ligand (25 μg/ml) were injected over reaction matrices at a flow rate of 5 μl/min. The association and dissociation rate constants, kon (unit M-1s-1) and koff (unit s-1) were determined under a continuous flow rate of 25 μl/min. Rate constants were derived by making kinetic binding measurements at ten different antigen concentrations ranging from 10 nM to 200 nM. The equilibrium dissociation constant (unit M) of the reaction between antibodies and recombinant purified IL-17 antigens was then calculated from the kinetic rate constants by the following formula: KD=koff/kon. Binding was recorded as a function of time and kinetic rate constants are calculated. In this assay, on-rates as fast as 10⁶ M⁻¹ s⁻¹ and off-rates as slow as 10⁻⁶ s⁻¹ can be measured.

[4] = molecular target: T3, human IL-17A (human, UniProt Q16552 24-155); test: SPR Biacore, captured binder
T3 construct: Purified recombinant; biotinylated in the ELISA; also called HuIL-17A; Hu IL-17A
T3 sequence (Q16552 24-155 limits assumed): as the sequence (Q16552 24-155 limits assumed) above
Procedure: as §1

[5] = molecular target: cyno IL-17A (cynomolgus monkey, UniProt A0A2K5TTB0 24-155); test: SPR Biacore, captured binder
Procedure: as §1

[6] = molecular target: T4, cynomolgus monkey IL-17A (cynomolgus monkey, UniProt A0A2K5TTB0 24-155); test: SPR (Biacore 3000), antibody captured by anti-Fc, antigen in solution;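 further: purified recombinant IL-17 antigens flowed over captured antibodies in HBS-EP buffer, global Langmuir one-to-one fit of association and dissociation phases, KD derived from koff over kon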
T4 construct: biotinylated in the ELISA; also called cyno IL-17; Cyno IL-17A

[7] = molecular target: T5, human IL-17A (human, UniProt Q16552 24-155); test: as above
T5 construct: Recombinant; biotinylated in the ELISA; also called hIL-17; hIL17A
T5 sequence (Q16552 24-155): as the sequence (Q16552 24-155 limits assumed) above

[8] = molecular target: T6, rat IL-17A (rat, UniProt Q61453 18-150, limits assumed); test: as above
T6 construct: Purified recombinant protein in SPR
T6 sequence (looked up): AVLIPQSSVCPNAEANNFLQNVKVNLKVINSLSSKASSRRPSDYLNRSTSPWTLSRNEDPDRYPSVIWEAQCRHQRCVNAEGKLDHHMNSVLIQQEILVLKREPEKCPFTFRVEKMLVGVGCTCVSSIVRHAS

[9] = molecular target: T7, human IL-17A/F (human, UniProt Q16552 24-155; Q96PD4 31-163); test: as above
T7 construct: Recombinant; biotinylated in the ELISA; also called hIL-17A/F; HuIL-17A/F
T7 sequence (Q16552 24-155, chain 1 of 2): as the sequence (Q16552 24-155 limits assumed) above
T7 sequence (Q96PD4 31-163, chain 2 of 2): as the sequence (Q96PD4 31-163 limits assumed, chain 2 of 2) above

[10] = molecular target: T8, mouse IL-17A (mouse, UniProt Q62386 26-158, limits assumed); test: as above
T8 construct: Purified recombinant protein in SPR; also called MuIL-17A; murine IL-17A
T8 sequence (looked up): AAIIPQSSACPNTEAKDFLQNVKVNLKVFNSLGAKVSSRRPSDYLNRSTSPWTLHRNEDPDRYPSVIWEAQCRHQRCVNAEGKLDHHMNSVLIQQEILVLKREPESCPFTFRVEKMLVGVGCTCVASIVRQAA

[11] = molecular target: T5, human IL-17A; test: hIL17A ELISA

T4 sequence (A0A2K5TTB0 entry or part of it): as the sequence (Q16552 24-155 limits assumed) above, with T3A, P8S, N34S, I77V, N78K, P104R counted along it
Chain of cyno IL-17A (A0A2K5TTB0 entry or part of it): as the sequence (Q16552 24-155 limits assumed) above, with T3A, P8S, N34S, I77V, N78K, P104R counted along it

B1: IL17-B6-46 (antibody, V domains shown)
VH: EVQLVQSGAEVKKPGESLKISCKASGGSFISYGISWVRQAPGQGLEWMGGITHFFGSTDYAQKFQGRVTITADESTTTAYMELSGLTSDDTAVYYCAREPNEFWNGYYTTHDFDSWGQGTTVTVSS
VL: EIVLTQSPDFQSVTPKEKVTITCRASQAIGSELHWYQQKPDQSPKLLIKYASYSVSGVPSRFSGSGSGTDFTLTINGLEAEDAGTYYCHQSASLPYTFGQGTKVDIK
notes: also called pJP253 B6.1 #46VH / pJP254 B6.1 #46Vk
- Potency (pM), IL-17-driven IL-6 production in HS27 cells [1]: 59 pM
- EC50 [2]: 0.14 nM

B2: IL17-B6-15 (antibody, V domains shown)
VH: EVQLVQSGAEVKKPGESLKISCKASGGSFSGYGTSWVRQAPGQGLEWMGGITHFFGAVDYAQKFQGRVTITADESTTTAYMELSGLTSDDTAVYYCARDPNEFWNGYYATHDFDYWGQGTTVTVSS
VL: EIVLTQSPDFQSVTPKEKVTITCRASQNIGAELHWYQQKPDQSPKLLIKYASHSISGVPSRFSGSGSGTDFTLTINGLEAEDAGTYYCHQTDRLPYSFGPGTKVDIK
- Kd [3]: 0.00647 nM
- koff [3]: 5.71e-05 s⁻¹
- kon [3]: 8.82e+06 M⁻¹ s⁻¹
- Kd [4]: 0.0073 nM
- koff [4]: 6.02e-05 s⁻¹
- kon [4]: 8.25e+06 M⁻¹ s⁻¹
- Kd [5]: 0.00401 nM
- koff [5]: 5.5e-05 s⁻¹
- kon [5]: 1.37e+07 M⁻¹ s⁻¹

B3: IL17-B6-16 (antibody, V domains shown)
VH: EVQLVQSGAEVKMPGSSLKISCKASGGSFRGYGISWVRQAPGQGLEWMGGITPFFGWADYAQKFQGRVTITADESTTTAYMELSGLTSDDTAVYYCARDPNEFWNGYYDTHHFDYWGQGTTVTVSS
VL: EIVLTQSPDFQSVTPKEKVTITCRASQDIGSALHWYQQKPDQSPKLLIKYASHSVSGVPSRFSGSGSGTDFTLTINGLEAEDAGTYYCHQSDILPHTFGPGTKVDIK
- Kd [3]: 0.0164 nM
- koff [3]: 6.57e-05 s⁻¹
- kon [3]: 4e+06 M⁻¹ s⁻¹
- Kd [4]: 0.00794 nM
- koff [4]: 3e-05 s⁻¹
- kon [4]: 3.78e+06 M⁻¹ s⁻¹
- Kd [5]: 0.00483 nM
- koff [5]: 4.48e-05 s⁻¹
- kon [5]: 9.27e+06 M⁻¹ s⁻¹

B4: IL17-B6-18 (antibody, V domains shown)
VH: EVQLVQSGAEVKKPGESLKVSCKASGGRFRTYGISWVRQAPGQGLEWMGGITNFFGWTDYAQKFQGRVTITADESTTTAYMELSGLTSDDTAVYYCARVPNEFWNGYYATDYFDNWGQGTTVTVSS
VL: EIVLTQSPDFQSVTPKEKVTITCRASQEIGASLHWYQQKPDQSPKLLIKYASHSASGVPSRFSGSGSGTDFTLTINSLEAEDAATYYCHQSDGLPYTFGQGTKVDIK
notes: also called pJP251 B6.1 #18VH / pJP250 B6.1 #18Vk
- EC50 [2]: 0.16 nM

B5: IL17-h5C5.18 (antibody, V domains shown)
VH: EVQLVQSGAEVKKPGASVKVSCKASGYTFTDYEFHWVRQAPGQGLEWIGVIHPGNGGTAYNQNFRDRATLTADKSTSTAYMELSSLRSEDTAVYYCTRFLTYEGYFDYWGQGTLVTVSS
VL: NIVMTQSPSSLSASVGDRVTITCKASQSVSIDVGWFQQKPGKSPKLLIYHASNRYTGVPSRFSGSGSGTDFTFTISSLQPEDFATYFCQQDYSSPYTFGQGTKLEIKR
notes: IgG; constant regions not specified; also called h5C5.18 (VH.1b-Vk.1c)
- Kd [6]: 0.437 nM
- koff [6]: 0.000254 s⁻¹
- kon [6]: 581000 M⁻¹ s⁻¹
- Kd [7]: 0.521 nM
- koff [7]: 0.000493 s⁻¹
- kon [7]: 947000 M⁻¹ s⁻¹
- Kd [8]: 9.15 nM
- koff [8]: 0.00421 s⁻¹
- kon [8]: 460000 M⁻¹ s⁻¹
- Kd [9]: 1.31 nM
- koff [9]: 0.00101 s⁻¹
- kon [9]: 772000 M⁻¹ s⁻¹
- Kd [10]: 2.91 nM
- koff [10]: 0.0005 s⁻¹
- kon [10]: 172000 M⁻¹ s⁻¹
- EC50 [11]: 0.03 nM

B6: IL17-G9-3 (antibody, V domains shown)
VH: EVQLLESGGGVVQPGRSLRLSCAASGFIFSNYGMHWVRQAPGKGLEWVAVISYDGSNKYYADSVKGRFTISRDNSKNTLYLEMNSLRPEDTAVYYCAKVGASGDYYYSYGLDVWGQGTTVTVSS
VL: QSVLTQPPSASGTPGQTVSISCSGRNSNIGSHYVHWYQQVPGAAPKLLMYDFGLRPSGVPDRFSVSQSGTSASLAISGLQSEDEADYYCATWDDMLGGYVFGTGTKVTVLG
- Potency (pM), IL-17-driven IL-6 production in HS27 cells [1]: 334 pM
- EC50 [2]: 0.05 nM

B7: IL17-G9-5 (antibody, V domains shown)
VH: EVQLLESGGGVVQPGRSLRLSCAASGFIFRNYGMHWVRQAPGKGLEWVAVIAYDGSRQYYSDSVKGRFTISRDNSKNTLYLEMNSLRPEDTAVYYCAKVGASGDYYYSYGLDLWGQGTTVTVSS
VL: QSVLTQPPSASGTPGQTVSISCSGRQSNIGRHYVDWYQQVPGAAPKLLMYYDSIRPSGVPDRFSGSQSGTSASLAISGLQSEDEADYYCGMWDDSLAGYVFGSGTKVTVLG
- Potency (pM), IL-17-driven IL-6 production in HS27 cells [1]: 310 pM
- EC50 [2]: 0.12 nM

B8: IL17-G9-M1 (antibody, V domains shown)
VH: EVQLLESGGGVVQPGRSLRLSCAASGFIFSNYGMHWVRQAPGKGLEWVAVISYDGGYKYYADSVKGRFTISRDNSKNTLYLEMNSLRPEDTAVYYCAKLSLSGDYYYSYGFDGWGQGTTVTVSS
VL: QSVLTQPPSASGTPGQTVSISCSGSKSNIGSHYVHWYQQVPGAAPKLLMYDFGQRPSGVPDRFSGSQSGTSASLAISGLQSEDEADYYCGTWDDWLGGYVFGTGTKVTVLG
- Kd [3]: 0.244 nM
- koff [3]: 3.95e-05 s⁻¹
- kon [3]: 162000 M⁻¹ s⁻¹
- Kd [4]: 0.00322 nM
- koff [4]: 1e-06 s⁻¹
- kon [4]: 311000 M⁻¹ s⁻¹
- Kd [5]: 0.00265 nM
- koff [5]: 1e-06 s⁻¹
- kon [5]: 377000 M⁻¹ s⁻¹

B9: IL17-G9-4 (antibody, V domains shown)
VH: EVQLLESGGGVVQPGRSLRLSCAASGFIFSNYGMHWVRQAPGKGLEWVAVISYDGSNKYYADSVKGRFTISRDNSKNTLYLEMNSLRPEDTAVYYCAKVGASGDYYYSYGLDVWGQGTTVTVSS
VL: QSVLTQPPSASGTPGQTVSISCSGRQSNIGRHYVDWYQQVPGAAPKLLMYYDSIRPSGVPDRFSGSQSGTSASLAISGLQSEDEADYYCATWDDSLGGYVFGSGTKVTVLG
notes: converted into IgG
- Kd [3]: 0.00424 nM
- koff [3]: 1e-06 s⁻¹
- kon [3]: 236000 M⁻¹ s⁻¹
- Kd [4]: 0.00469 nM
- koff [4]: 1e-06 s⁻¹
- kon [4]: 213000 M⁻¹ s⁻¹
- Kd [5]: 0.00377 nM
- koff [5]: 1e-06 s⁻¹
- kon [5]: 265000 M⁻¹ s⁻¹

B10: IL17-G9-M2 (antibody, V domains shown)
VH: EVQLLESGGGVVQPGRSLRLSCAASGFIFSNYGMHWVRQAPGKGLEWVAVISYDGSNKYYADSVKGRFTISRDNSKNTLYLEMNSLRPEDTAVYYCAKVGASGDYYYSYGLDVWGQGTTVTVSS
VL: QSVLTQPPSASGTPGQTVSISCSGHNSNIGYHYVHWYQQVPGAAPKLLIYGDGWRPSGVPDRFSGSQSGTSASLAISGLQSEDEADYYCGTWDDWLGGYVFGTGTKVTVLG
notes: converted into IgG
- Kd [3]: 0.0103 nM
- koff [3]: 1.41e-06 s⁻¹
- kon [3]: 137000 M⁻¹ s⁻¹
- Kd [4]: 0.00826 nM
- koff [4]: 2.32e-06 s⁻¹
- kon [4]: 281000 M⁻¹ s⁻¹
- Kd [5]: < 0.00245 nM
- koff [5]: < 1e-06 s⁻¹
- kon [5]: 408000 M⁻¹ s⁻¹

B11: IL17-G9-2 (antibody, V domains shown)
VH: EVQLLESGGGVVQPGRSLRLSCAASGFIFRNYGMHWVRQAPGKGLEWVAVISYDGSNKYYADSVKGRFTISRDNSKNTLYLEMNSLRPEDTAVYYCAKVGASGDYYYSYGLDVWGQGTTVTVSS
VL: QSVLTQPPSASGTPGQTVSISCSGSNSNIGRHPVDWYQQVPGAAPKLLIYYDDQRPSGVPDRFSGSQSGTSASLAISGLQSEDEADYYCATWDDSLGGYVFGSGTKVTVLG
- Kd [3]: 0.437 nM
- koff [3]: 8.66e-05 s⁻¹
- kon [3]: 198000 M⁻¹ s⁻¹
- Kd [4]: < 0.00433 nM
- koff [4]: < 1e-06 s⁻¹
- kon [4]: 231000 M⁻¹ s⁻¹
- Kd [5]: < 0.0027 nM
- koff [5]: < 1e-06 s⁻¹
- kon [5]: 371000 M⁻¹ s⁻¹

B12: IL17-TN-K7-B6 (antibody, V domains shown)
VH: EVQLVQSGAEVKKPGESLKISCKASGGSFRSYGISWVRQAPGQGLEWMGGITPILGTANYAQKFQGRVTITADESTTTAYMELSGLTSDDTAVYYCAREPNDFWNGYYTTHHFDYWGQGTPVTVSS
VL: DVVMTQSPDFQSVTPKEKVTITCRASQNIGSALHWYQQKPDQSPKLLIKYASQSISGVPSRFSGSGSGTDFTLTINGLEAEDAGTYYCHQSTSLPHTFGQGTKLDIKR
notes: Fully human antibody
- Kd [3]: 21.9 nM
- koff [3]: 0.000175 s⁻¹
- kon [3]: 7980 M⁻¹ s⁻¹
- Kd [4]: 0.84 nM
- koff [4]: 1.47e-05 s⁻¹
- kon [4]: 17500 M⁻¹ s⁻¹
- Kd [5]: 0.992 nM
- koff [5]: 2.51e-05 s⁻¹
- kon [5]: 25300 M⁻¹ s⁻¹

B13: IL17-LN-K9-F5 (antibody, V domains shown)
VH: EVQLVQSGAEVKNPGASVKVSCKVSGSRLSDLAMHWVRQAPGKGPEWMGGFDPDEGETVYAQNFQGRVSMTEDTSSDTAYMELNSLRSEDTAVYYCATIRPWLGGAYYFDNWGQGTLVTVSS
VL: ETTLTQSPAFMSATPGDKVNISCKASQDIDDDMNWYQQKPGEAALFIIQEATTLVPGIPPRFSGSGYGTDFTLTVNNIQSEDAAYYFCLQHDSFPYTFGQGTKLEIKR
notes: Fully human monoclonal antibody from mRNA display
- EC50 [2]: 7.45 nM
